From US20170016892A1, “LOCALIZED SURFACE PLASMON RESONANCE SENSING OF HUMAN PERFORMANCE BIOMARKERS USING SHORT PEPTIDE RECOGNITION ELEMENTS ON OPTICALLY ACTIVE METAL NANOSTRUCTURES” (Government of the United States as Represented by the …, priority 2015, published 2017)
Where no end group is shown, it is not given here.

Assays:
[1] = biological target: T1, cTnI (Homo sapiens, UniProt P19429); test: binding affinity of phage-display-identified peptide to cTnI; settings: peptide identified from a phage display peptide library
Source text: Human troponin I binding peptide (Seq. ID No. 1), identified from a phage display peptide library, with nanomolar (nM) binding affinity to cTnI. Conjugation of the peptide to AuNR was achieved by introducing a cysteine resident at the C-terminus of the peptide (Seq. ID No. 2), to facilitate binding via an Au—S linkage.

[2] = thermal and shelf-life stability of BPDs by measured LSPR shift; assay type: physicochemical; settings: incubated at 4° C. and at 60° C., each for 48 hrs
Procedure: To compare stability of both the peptide- and antibody-AuNR BPDs, each BPD type was incubated at 4° C. and at 60° C., each for 48 hrs. […] This reduction is believed to be due to antibody denaturation and lose molecular recognition at elevated temperatures.

[3] = biological target: troponin (Homo sapiens, UniProt P19429); test: detection of troponin in artificial eccrine sweat with peptide-based BPDs (LSPR shift); assay type: binding
Procedure: (§1) Peptide-based BPDs prepared in accordance with embodiments of the present invention were used in detection of troponin in complex physiological fluids, including, for example, human plasma and sweat. To reduce nonspecific binding, the BPDs were first exposed to 1% HAS to block non-specific sites. […] The limit of detection of cTnI in human plasma was 353 pg/mL, which was within physiological relevant concentration range of troponin in human plasma (0.010 ng/mL to 10 ng/mL). […] Moreover, detection of troponin in artificial eccrine sweat at physiologically-relevant concentration was also accomplished (see, FIG. 16B).

[4] = biological target: human serum albumin (HSA) (Homo sapiens, UniProt P02768); test: selectivity of BPDs with human serum albumin as interfering protein (LSPR shift); assay type: binding; settings: high concentrations of HSA
Source text: To compare selectivity of both the peptide- and antibody-AuNR BPDs towards cTnI, human serum albumin (“HSA”) was used as an interfering protein.

[5] = biological target: T1, cTnI; test: LSPR shift of BPDs on exposure to troponin in buffer; assay type: binding
Procedure: To probe the sensing capability of the BPDs, each BPD was exposed to troponin 1 (3.53 μg/mL in 0.1 M TBS, pH 8.0). […] The higher sensitivity of peptide-AuNR as compared to the sensitivity of the antibody-AuNR was believed to be due to differences in the thickness of the peptide and antibody adsorbate layer.
To probe the limit of detection in both the peptide- and antibody-AuNR BPDs, each BPD was exposed to varying concentrations of cTnI.

[6] = biological target: T1, cTnI; test: detection of troponin in human plasma with peptide-based BPDs (LSPR shift); assay type: binding
Procedure: as §1

[7] = biological target: T2, cardiac troponin I (human, UniProt P19429 2-210, limits assumed); test: LSPR shift after troponin binding, peptide-AuNR against anti-cTnI-AuNR as reference
T2 construct: It was used in 0.1 M TBS pH 8.0, and spiked in human plasma and artificial eccrine sweat; also called cTnI; troponin 1
T2 sequence (P19429 2-210 limits assumed): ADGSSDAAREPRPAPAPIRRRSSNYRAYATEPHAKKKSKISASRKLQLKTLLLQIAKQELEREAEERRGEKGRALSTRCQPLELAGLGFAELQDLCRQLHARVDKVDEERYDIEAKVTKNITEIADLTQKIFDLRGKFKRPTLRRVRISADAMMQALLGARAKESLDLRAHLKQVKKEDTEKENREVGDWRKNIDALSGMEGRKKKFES

T1 sequence (P19429 whole entry): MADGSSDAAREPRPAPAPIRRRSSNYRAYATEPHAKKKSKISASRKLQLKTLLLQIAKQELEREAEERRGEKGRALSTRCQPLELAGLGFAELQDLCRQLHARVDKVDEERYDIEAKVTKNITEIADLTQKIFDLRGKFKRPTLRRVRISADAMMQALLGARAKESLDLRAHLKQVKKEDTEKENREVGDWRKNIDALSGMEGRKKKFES
troponin, sequence (P19429 whole entry): as above

Human troponin I binding peptide: Human troponin I binding peptide (Seq. ID No. 1), identified from a phage display peptide library (FYSHSFHENWPS)
binding affinity to cTnI [1]: nanomolar

peptide-AuNR: Troponin I binding peptide with C-terminal cysteine (Seq. ID No. 2) conjugated to gold nanorods via Au—S linkage, adsorbed on filter paper (FYSHSFHENWPSC; not fully specified (residue 13); also: conjugated to gold nanorods via Au–S bond of C-terminal Cys)
stability (measured LSPR shift after incubation) [2]: remarkable thermal and temporal stability | LSPR shift with increased troponin concentration [3]: monotonic increase | detection of troponin at physiologically-relevant concentration [3]: accomplished | LSPR shift upon exposure to HSA [4]: small LSPR shifts | LSPR red shift on exposure to troponin ([5]; troponin 1 3.53 μg/mL in 0.1 M TBS, pH 8.0): 12.3 nm | limit of detection of cTnI ([5]; varying concentrations of cTnI): about 35.3 pg/mL | LSPR shift with increased troponin concentration [6]: monotonic increase | limit of detection of cTnI in human plasma ([6]; BPDs first blocked with 1% HAS): 353 pg/mL

B1: Human troponin I binding peptide with a cysteine residue introduced at the C-terminus (Seq. ID No. 2), conjugated to gold nanorods (AuNR) (peptide)
peptide: FYSHSFHENWPSC(AuNR)
notes: ID No. 1 is the parent phage-display peptide; ID No. 2 is the same peptide with an added C-terminal Cys, and it is the form on the AuNRs in the assays; also called peptide-AuNR
LSPR shift relative to antibodies as recognition elements [7]: ~100 % higher
